The source of these data is article PMC9603081, “Transcription Factors as Important Regulators of Changes in Behavior through Domestication of Gray Rats: Quantitative Data from RNA Sequencing”.

Series [1] deals with TBP (TATA-binding protein) (Homo sapiens) (UniProt P20226). Briefly: EMSA. The settings on record: EMSA association kinetics, 0.3 nM TBP, four ODN concentrations; buffer, salt, pH and temperature not in the material. A general note: In EMSA bound probe runs differently from free probe, usually more slowly.
Sequence of TBP (TATA-binding protein) (Homo sapiens) (P20226 whole entry): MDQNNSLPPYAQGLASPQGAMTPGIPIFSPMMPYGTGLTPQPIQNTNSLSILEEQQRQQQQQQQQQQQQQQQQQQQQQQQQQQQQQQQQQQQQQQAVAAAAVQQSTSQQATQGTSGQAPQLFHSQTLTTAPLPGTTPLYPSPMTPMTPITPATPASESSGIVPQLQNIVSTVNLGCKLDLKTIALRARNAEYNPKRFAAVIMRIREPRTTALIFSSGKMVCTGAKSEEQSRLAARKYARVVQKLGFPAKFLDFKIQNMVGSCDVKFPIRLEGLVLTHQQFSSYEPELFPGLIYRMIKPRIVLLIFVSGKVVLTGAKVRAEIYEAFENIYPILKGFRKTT
Series [2] concerns the target T1, TBP (TATA-binding protein) (Homo sapiens, UniProt P20226 1-339). Briefly: EMSA; EMSA association kinetics, 0.3 nM TBP, four ODN concentrations; buffer, salt, pH and temperature not in the material. To be noted: protein: recombinant; label: 32P both strands; blunt.
Series [3] concerns the target T1, TBP (TATA-binding protein). Briefly: EMSA; association kinetics, 0.3 nM TBP; Table S2 in vitro -ln(KD) 15.05 disagrees; EMSA association kinetics, 0.3 nM TBP, four ODN concentrations; buffer, salt, pH and temperature not in the material. To be noted: protein: recombinant; label: 32P both strands; blunt.

T1 sequence (P20226 whole entry): as above

As a reminder, the Kd is a measure of binding affinity in units of concentration. “TCGAAAAATAAAACAAAATAAAACAT (double strand) [ASCL3 rs1049743008 T-45c]”: in series [1], the Kd was found to be 17 nM.

B1: HBB rs34598529 A-28C (dsDNA)
DNA 1: CAGGGCTGGGCATACAAGTCAGGGCA
DNA 2: TGCCCTGACTTGTATGCCCAGCCCTG
Take B1: the Kd in series [2] turned out to be 499 nM.

B2: HBB rs33980857 T-29A (dsDNA)
DNA 1: CAGGGCTGGGCAAAAAAGTCAGGGCA
DNA 2: TGCCCTGACTTTTTTGCCCAGCCCTG
As for B2, in series [2], the Kd worked out at 110 nM.

B3: HBB rs33980857 T-29G (dsDNA)
DNA 1: CAGGGCTGGGCAGAAAAGTCAGGGCA
DNA 2: TGCCCTGACTTTTCTGCCCAGCCCTG
In the case of B3, the Kd in series [2] is 110 nM.

B4: HBB rs33980857 T-29C (dsDNA)
DNA 1: CAGGGCTGGGCACAAAAGTCAGGGCA
DNA 2: TGCCCTGACTTTTGTGCCCAGCCCTG
Regarding B4, the dissociation constant Kd in series [2] was determined as 140 nM.

B5: HBD WT (dsDNA)
DNA 1: ACAGGACCAGCATAAAAGGCAGGGCA
DNA 2: TGCCCTGCCTTTTATGCTGGTCCTGT
Take B5: the Kd in series [2] came out at 70.3 nM.

B6: HBB rs63750953 del -25AA (dsDNA)
DNA 1: CCAGGGCTGGGCATAAGTCAGGGCAG
DNA 2: CTGCCCTGACTTATGCCCAGCCCTGG
Consider B6, for which, in series [2], the Kd is 150 nM.

B7: HBB rs33931746 A-27T (dsDNA)
DNA 1: CAGGGCTGGGCATATAAGTCAGGGCA
DNA 2: TGCCCTGACTTATATGCCCAGCCCTG
Turning to B7, the Kd in series [2] came out at 59.9 nM.

B8: HBB rs34500389 C-32T (dsDNA)
DNA 1: CAGGGCTGGGTATAAAAGTCAGGGCA
DNA 2: TGCCCTGACTTTTATACCCAGCCCTG
With B8, the Kd in series [2] amounted to 31.9 nM.

B9: HBB rs34598529 A-28G (row 10) (dsDNA)
DNA 1: CAGGGCTGGGCATGAAAGTCAGGGCA
DNA 2: TGCCCTGACTTTCATGCCCAGCCCTG
Regarding B9, in series [2], the Kd was found to be 499 nM.

B10: HBB rs281864525 A-25C (dsDNA)
DNA 1: CAGGGCTGGGCATAAACGTCAGGGCA
DNA 2: TGCCCTGACGTTTATGCCCAGCCCTG
B10: the Kd in series [2] came out at 150 nM.

B11: HBD rs35518301 A-31G (dsDNA)
DNA 1: ACAGGACCAGCGTAAAAGGCAGGGCA
DNA 2: TGCCCTGCCTTTTACGCTGGTCCTGT
Turning to B11, the Kd in series [2] stood at 99.8 nM.

B12: HBB WT (dsDNA)
DNA 1: CAGGGCTGGGCATAAAAGTCAGGGCA
DNA 2: TGCCCTGACTTTTATGCCCAGCCCTG
B12: in series [2], the dissociation constant (Kd) amounted to 50.1 nM.

B13: ASCL3 WT (dsDNA)
DNA 1: TCGAAAAATAAAATAAAATAAAACAT
DNA 2: ATGTTTTATTTTATTTTATTTTTCGA
Turning to B13, the Kd in series [3] turned out to be 12 nM.

B14: HBB rs34598529 A-28G (row 2) (dsDNA)
DNA 1: CAGGGCTGGGCATAGAAGTCAGGGCA
DNA 2: TGCCCTGACTTCTATGCCCAGCCCTG
With B14, the Kd in series [2] is 557 nM.

B15: HBD rs34166473 T-30C (dsDNA)
DNA 1: ACAGGACCAGCACAAAAGGCAGGGCA
DNA 2: TGCCCTGCCTTTTGTGCTGGTCCTGT
Consider B15, for which, in series [2], the Kd is 170 nM.
